The source of these data is PMC11637481, “A third dose of inactivated vaccine augments the potency, breadth, and duration of anamnestic responses against SARS-CoV-2” (Protein & Cell, 2024).

B1: XGv026 (antibody, V domains shown)
VH: EVQLVESGGGVIQPGGSLRLSCAASEIIVSSNYMNWVRQAPGKGLEWVSVIYPGGSSFYADSVKGRFTISRDNSKNTLYLQMNSLRVEDTAVYYCARDSPHRPGTIWGQGTLVVVSS
VL: DIQMTQSPSSLSASVGDRVTITCRASQDINNYLNWYQQKPGKAPKLLIYDAFTLEAGVPSRFSGARFGTDFTFTISSLQPEDIATYYCHQCDNLPCTFGGGTKVEIK
B2: XGv030 (antibody, V domains shown)
VH: EVQLVESGGGLVQPGGSLRLSCAASGFSFSTYSLNWVRQAPGKGLEWVSYISSSSITIYYAHSVKGRFTISRDDAKNSLYLQVNNLRDEDTAVYYCARVLGFSDYVWGSYQRGLYGMDVWGQGTTVSVSS
VL: QSALTQPASVSGSPGQSIAISCTGTSSDVGGYDFVSWYQQHPGKAPKLLIYDVTNRPSGISNRFSGSKSGNTASLTISGLQTEDEADYYCSSFTSSNTLPFVFGTGTTVTVL
B3: XGv018 (antibody, V domains shown)
VH: QVQLVESGGGVVQPGRSLRLSCAASGFTFSTYGMHWVRQAPGKGLEWVAVILNDGSGKLYADSVKGRFTISRDNSKNTLYLQMSSLRAEDTAVYFCARDQGELVTYFDYWGQGTLVTVSS
VL: DIQMTQSPSSLSASVGDRVTITCRASQSISRYLNWYQHKPGKAPKLLIYTTSNLQSGVPSRFSGSGSGTDFTLTISSLHPEDFATYYCQQSYNTPSWTFGQGTKVEIK
B4: XGv042 (antibody, V domains shown)
VH: QITLKESGPTLVKPTQTLTLTCTFSGLSMTTSGVGVGWIRQPPGKALEWLALIYWDDDKRYSPFLKSRLTITKDTSKNQVVLTMTNMDPADTGTYFCAHHTIPSIFDHWGQGTLVTVSS
VL: QSALTQPASVSGSPGQSITISCTATSSDVGVYNYVSWYQQYPGKAPRLIIFEVSNRPSGVSSRFSGSKSGYTASLTISGLQTDDEADYYCSSYTTTSTVFGGGTKLTVL
B5: XGv016 (antibody, V domains shown)
VH: QVQLVQSGTEVRKPGASVTVSCKASGYTFTTYHMHWVRRAPGQGLEWMGIIDPGTGGASYPQKFRGRVTLTRDTSTNTVYMELSSLRFQDTAIYYCARAEGSSWLGWFDPWGQGTLVTVSS
VL: QSVLTQPPSASGTPGQRVSISCSGSSSNIGTNYVYWYQQLPGTAPKLLIYKNNQRPSGVPDRFSGSKSGTSASLAISGLRSEDEADYFCASWDNGLSGSGWVFGGGTKLTV
B6: XGv038 (antibody, V domains shown)
VH: QVQLVESGGGVVQPGRSLRLSCAASGFTFNNYGIHWVRQAPGKGLEWVAVIWYDGTNKYYADSVKGRFTISRDNSKNTVYLQMNSLRAEDTAVYYCARDYEITMAAPDYWGQGTLVTVSS
VL: DVVMTQSPLSLPVTLEQPASISCRSSQSLVSSDGNTYLNWFQQRPGQSPRRLIYKVSNRDSGVPDRFSGSGSGTDFTLKINRVEAEDVGIYYCMQGSHWPPTFGGGTKVEIK
B7: XGv013 (antibody, V domains shown)
VH: EVQLVESGGGLVQPGGSLRLSCAASGITVSSNYMTWVRQAPGKGLEWVSVIYAGGSTFYADSVKGRFTISRDNSKNTLYLQMNSLRVEDTAVYYCARDLVDYGMDVWGQGTTVTVSS
VL: DIQLTQSPSFLSASVGDRVTITCRASQGIASYLAWYQQKPGKAPKLLIYAASTLQSGVPTRFSGSGSGTEFTLTIRSLQPEDSATYYCQHPSGHPPTFGGGTKVEI

In this assay the target is T1, SARS-CoV-2 receptor-binding domain (RBD), wild type (SARS-CoV-2, wild type (GenBank MN908947), UniProt P0DTC2).
T1 construct: also called WT
The assay can be described thus: BLI. As to conditions: both partners purified.
By Kd is commonly meant the concentration at which binding is half-saturated. A low value points to higher affinity. B1: the dissociation constant (Kd) came out at 0.23 nM.

In the case of B2, the Kd was 1.3 nM. Compared with the last molecule, the Kd is about 5.7-fold higher.

B3: the Kd stood at 0.21 nM. This Kd lies about 6.2-fold lower than the previous one.

B4 displayed a Kd of 0.16 nM.

Turning to B5, binding was put at a Kd of 0.16 nM.

The molecule B6 gave a Kd of 0.43 nM.

B7 gave a Kd of 0.26 nM.
